Biological target: Mannose/N-acetylglucosamine (Man/GlcNAc) receptor on thioglycolate-elicited mouse peritoneal macrophages (mouse) (UniProt Q61830)
Assay: cell-based or functional assay

Chain of Mannose/N-acetylglucosamine (Man/GlcNAc) receptor on thioglycolate-elicited mouse peritoneal macrophages (mouse) (Q61830 20-1456): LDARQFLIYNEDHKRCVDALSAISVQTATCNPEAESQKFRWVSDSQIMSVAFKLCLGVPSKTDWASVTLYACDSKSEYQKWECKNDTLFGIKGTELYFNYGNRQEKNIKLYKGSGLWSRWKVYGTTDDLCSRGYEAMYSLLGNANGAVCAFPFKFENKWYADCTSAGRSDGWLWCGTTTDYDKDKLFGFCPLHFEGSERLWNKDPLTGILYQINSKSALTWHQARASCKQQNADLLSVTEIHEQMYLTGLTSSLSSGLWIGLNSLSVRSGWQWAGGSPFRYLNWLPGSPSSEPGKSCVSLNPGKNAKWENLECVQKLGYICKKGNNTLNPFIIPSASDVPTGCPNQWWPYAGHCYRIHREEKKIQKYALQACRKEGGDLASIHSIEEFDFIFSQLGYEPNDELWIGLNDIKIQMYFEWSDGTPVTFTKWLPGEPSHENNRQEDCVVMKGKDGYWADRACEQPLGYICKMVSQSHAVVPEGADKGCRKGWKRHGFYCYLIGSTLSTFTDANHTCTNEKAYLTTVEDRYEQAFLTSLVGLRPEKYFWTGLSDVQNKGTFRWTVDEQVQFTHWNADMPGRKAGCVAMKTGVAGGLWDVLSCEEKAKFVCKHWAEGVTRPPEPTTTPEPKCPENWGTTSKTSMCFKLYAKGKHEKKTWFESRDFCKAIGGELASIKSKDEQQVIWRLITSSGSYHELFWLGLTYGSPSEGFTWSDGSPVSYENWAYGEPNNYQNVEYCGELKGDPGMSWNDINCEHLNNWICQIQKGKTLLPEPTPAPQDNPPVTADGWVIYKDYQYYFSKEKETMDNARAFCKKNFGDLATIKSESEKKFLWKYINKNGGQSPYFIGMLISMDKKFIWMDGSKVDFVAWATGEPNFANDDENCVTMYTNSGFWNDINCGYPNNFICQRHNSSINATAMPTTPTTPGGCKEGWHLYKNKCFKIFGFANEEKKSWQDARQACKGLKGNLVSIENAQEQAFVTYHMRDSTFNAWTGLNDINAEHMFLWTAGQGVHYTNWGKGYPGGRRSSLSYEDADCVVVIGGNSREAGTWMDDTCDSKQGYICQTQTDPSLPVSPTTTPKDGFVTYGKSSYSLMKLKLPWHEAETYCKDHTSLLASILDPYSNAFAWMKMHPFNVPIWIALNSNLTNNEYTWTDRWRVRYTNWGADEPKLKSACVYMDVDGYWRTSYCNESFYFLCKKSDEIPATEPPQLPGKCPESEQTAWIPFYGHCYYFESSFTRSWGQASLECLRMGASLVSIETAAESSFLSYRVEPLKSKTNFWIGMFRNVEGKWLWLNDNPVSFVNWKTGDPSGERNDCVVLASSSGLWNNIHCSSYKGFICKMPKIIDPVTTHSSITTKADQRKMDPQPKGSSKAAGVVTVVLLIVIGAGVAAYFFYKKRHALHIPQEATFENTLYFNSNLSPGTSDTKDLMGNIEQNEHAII

“Cerezyme (commercial recombinant human GCD produced in mammalian CHO cells) (from UniProt P04062 40-536) (enzyme)” was tested. Which percent of specific activity from total activity, inhibited by 4 mg/ml mannan did it give?
Its percent of specific activity from total activity, inhibited by 4 mg/ml mannan is 65%.

Reference: patent publication US20100196345A1
